The record followed here is the supplement of paper PMC12764529.

The nature of series [1]: folding stability dG unfold from chymotrypsin proteolysis; higher = more stable. Summed up:
(§1)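 How resistant each design was to proteolysis was captured as K50, inferred by Bayesian fitting of sequencing counts. Unfolding free energy was then derived relative to a sequence-predicted unfolded-state K50 and a shared folded-state K50, per protease or combined. Digestion used trypsin and chymotrypsin at 11 threefold-diluted concentrations plus a no-protease condition, on mini-proteins under 80 residues without cysteine in a PA-tagged cDNA display construct. Designs were kept only when AlphaFold2 dimer inter-PAE was above 15.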

Series [2] can be described thus: folding stability dG unfold (combined trypsin and chymotrypsin); higher = more stable. In short, it runs like this: as §1

± gives the half width of the 95% confidence interval. Some results are limits rather than exact numbers.

Consider “SAGGSAGGSPVRPRTGTVYDPETGARVDVLEYEFPLPDGTPVTVTEVVVTDGDTRTTATLVDPSAGGSAGGS [r12_619_TrMRF]”, for which the “folding stability dG unfold” value was 0.29 ± 0.014 kcal/mol in series [1] and -0.263 ± 0.073 kcal/mol in series [2].

As for “SAGGSAGGSPWQVTHETVTLPEYDPSSDKPIREVTVTVTTETDPTTGATTVSLNLPSDFLRELRSAGGSAGG [r6_206_JUSTAS]”, the entries for the “folding stability dG unfold” value in series [1] and in series [2] were 0.291 ± 0.14 kcal/mol and -0.123 ± 0.22 kcal/mol, respectively.

On to “SAGGSAGGSRWRVSFEGPNGGTQEHDIPVPPGEPVDLDEILDEFKEAHPGGPPRPIKIERPDPSAGGSAGGS [r12_262_TrROS]”, for which the entries for the “folding stability dG unfold” value in series [1] and in series [2] were 0.232 ± 0.28 kcal/mol and -0.651 ± 0.33 kcal/mol, respectively.

In the case of “SAGGSAGGSSGLTLLEETEISPGPPVPAIPATLPVKVDGKTVPLPITLTPEELAALRAELLRRSAGGSAGGS [r20_148_JUSTAS]”, the “folding stability dG unfold” value in series [1] is 0.893 ± 0.088 kcal/mol; in series [2], 0.364 ± 0.093 kcal/mol.

For “SAGGSAGGSSPKAQRLQDRIRQEFPPNEIDKVEMSGDKIVIHGRPGYRQRIQEELGLKNIEIVSAGGSAGGS [r12_748_TrROS]”, the “folding stability dG unfold” value in series [1] turned out to be 0.344 ± 0.098 kcal/mol; in series [2], 0.0708 ± 0.13 kcal/mol.

“SAGGSAGGSSSRFEAIKKKILDAFPEDVIKEVKKGPGKIYVVGKPEYIKEIKKLTGSKDIIINSAGGSAGGS [r12_748_JUSTAS]”: the results for the “folding stability dG unfold” value in series [1] and in series [2] were -0.559 ± 0.36 kcal/mol and -0.606 ± 0.34 kcal/mol, respectively.

As for “SAGGSAGGSSTLSVELPDFTGSAADVLAALRAAFPDPALVLDGVEVRPLGADRPGWRVELAVASAGGSAGGS [r12_348_JUSTAS]”, the “folding stability dG unfold” value in series [1] stood at 0.958 ± 0.091 kcal/mol; in series [2], 0.499 ± 0.078 kcal/mol.

“SAGGSAGGSTITGRFESPEGINELANEFPGVEIFEDPENNWIYVEIEIKPPPPPPPEDQKNNKSAGGSAGGS [r20_191_TrROS]”: the “folding stability dG unfold” value in series [1] turned out to be 0.916 ± 0.078 kcal/mol; in series [2] it was 0.35 ± 0.3 kcal/mol.

On to “SAGGSAGGSTTMTLTITEYTNDPEGGVKKKKSTTESTVSPEEVEKVAEEVKKKSKNVKVTVNSSAGGSAGGS [r12_342_JUSTAS]”, for which the “folding stability dG unfold” value in series [1] was -0.315 ± 0.29 kcal/mol; in series [2], -0.775 ± 0.23 kcal/mol.

In the case of “SAGGSAGGYRITIKDPDGVKIEIWQGPNGMMPIKVENPNGKKRERMVNGPPGDIEDFLKELLKQSAGGSAGG [r6_27_TrROS]”, the “folding stability dG unfold” value was 0.378 ± 0.31 kcal/mol in series [1] and -0.125 ± 0.59 kcal/mol in series [2].

With “SAGGSAGHMIEKVTTTSPDNTTTTVSLTPPDAPLDIKLPNGASATQTPLPGGRLRVTTTTTTPAAASAGGSA [r15_523_JUSTAS]”, the “folding stability dG unfold” value in series [1] is 0.841 ± 0.062 kcal/mol; in series [2], 0.338 ± 0.21 kcal/mol.

“SAGGSAGMPTTVFLTRPGPRAITMRTDPVSGTVTFTLPSGEVTTTPLSTVKELKVPPDIATVTILASAGGSA [r15_1043_JUSTAS]”: the entries for the “folding stability dG unfold” value in series [1] and in series [2] were -0.365 ± 0.29 kcal/mol and -0.609 ± 0.24 kcal/mol, respectively.

As to “SAGGSAKIEIEWNPENGMVRVKAEYPNDGKKKEHTFNPGDSPKQLADDINQEFKKPVEIDEIEWYPSAGGSA [r15_544_TrROS]”, the entries for the “folding stability dG unfold” value in series [1] and in series [2] were 0.683 ± 0.04 kcal/mol and 0.153 ± 0.44 kcal/mol, respectively.

For “SAGGSAKLPPGQRVRLEIEHPAHGWTHEHTFPIKSVEEFKQSLEIPMPNPNGEPMPMRVKILDVEKSAGGSA [r15_797_TrROS]”, the “folding stability dG unfold” value is -0.363 ± 0.48 kcal/mol in series [1] and less than -1 kcal/mol in series [2].

With “SAGGSALPPGQKIKMKFPDDGKKMTITFNPGQNNIEIENDGKKETYPFDSVEDLLDEFGWKVLDIESAGGSA [r15_500_TrROS]”, the “folding stability dG unfold” value in series [1] was 0.465 ± 0.073 kcal/mol; in series [2] it was -0.0488 ± 0.19 kcal/mol.

Take “SAGGSALTAKEARELVRNYAREHNPDYKVKGIEVERLPDKWVHADIEVRPPENPGQEHEWSIWIPYSAGGSA [r15_627_TrROS]”: the “folding stability dG unfold” value was -0.418 ± 0.33 kcal/mol in series [1] and -0.986 ± 0.31 kcal/mol in series [2].

For the sequence “SAGGSAMIEVRTVAGEPVEVTPIPEDEVLVARTPGGRKAPFLLGEDVLRELVVEPDAPPDLFIVPGSAGGSA [r15_709_TrMRF]”, the “folding stability dG unfold” value in series [1] is -0.141 ± 0.093 kcal/mol; in series [2], -0.617 ± 0.13 kcal/mol.

For “SAGGSAMTKKTVVTIPLPPGAEDLSPEEVERRVRDELAAEPARPDVTVEVERLPPEPVVRVTITEASAGGSA [r15_1029_JUSTAS]”, the “folding stability dG unfold” value in series [1] is 0.0943 ± 0.046 kcal/mol; in series [2], -0.307 ± 0.2 kcal/mol.

As for “SAGGSAMTTRATATPQPDGTVTVTVEAPGFSRTFTAPPGDLAASLAAVERELPPGEPRVVTSAAAGSAGGSA [r15_925_JUSTAS]”, the “folding stability dG unfold” value in series [1] is 0.346 ± 0.059 kcal/mol; in series [2], -0.233 ± 0.067 kcal/mol.

Regarding “SAGGSAMVIDSKEVLEDDVLVTTTAITVDPSTGIKTEDVEEKPVPLPDGTPLPPRKTTRTTPLANASAGGSA [r15_623_JUSTAS]”, the figures for the “folding stability dG unfold” value in series [1] and in series [2] were 0.784 ± 0.025 kcal/mol and 0.175 ± 0.13 kcal/mol, respectively.

For the sequence “SAGGSAPKIYSVEEKELPDNYRLIVFKADKSDPEFIEEIAELLPKEKVEPLSKSEDGYYVVRLPLESAGGSA [r15_386_TrMRF]”, the results for the “folding stability dG unfold” value in series [1] and in series [2] were 0.0639 ± 0.23 kcal/mol and -0.0414 ± 0.26 kcal/mol, respectively.

Consider “SAGGSAPKRLRIKFKDPDGKTQKIKIPPGIKSINIQPNNDYVSLMIHNPEDGQSRMLPPMRVDEITSAGGSA [r15_133_TrROS]”, for which the “folding stability dG unfold” value in series [1] was -0.899 ± 0.48 kcal/mol; in series [2] it was less than -1 kcal/mol.

As for “SAGGSAPPEVVEVPPVELPDYTVSPPRFAPEPTLRERTATPPDGPEFSVTTRIDPETGVPEVVVAASAGGSA [r15_84_JUSTAS]”, the figures for the “folding stability dG unfold” value in series [1] and in series [2] were 0.718 ± 0.017 kcal/mol and 0.211 ± 0.067 kcal/mol, respectively.

For the sequence “SAGGSASMKTTTVTLPLDPAQLAEAIAALREAVAPDEAAEVTFVHPHAPTSLTVTISRSDVTLNAASAGGSA [r15_257_JUSTAS]”, the “folding stability dG unfold” value in series [1] is 0.706 ± 0.074 kcal/mol; in series [2], -0.17 ± 0.11 kcal/mol.

For “SAGGSASPVLVELPEGVRVELPPDTMTVTIRLPNGTEVVVPLENPEPPDPAAALARARAVVAALPESAGGSA [r15_748_JUSTAS]”, the “folding stability dG unfold” value in series [1] is 0.774 ± 0.1 kcal/mol; in series [2], 0.185 ± 0.11 kcal/mol.

With “SAGGSASSEFNTDKKPPPLPKKSKVINLNIPTPPDETEEEAKKKAEEIANKLKEEGKYGEVTVKIESAGGSA [r15_450_JUSTAS]”, the results for the “folding stability dG unfold” value in series [1] and in series [2] were 0.756 ± 0.17 kcal/mol and 0.5 ± 0.41 kcal/mol, respectively.

As for “SAGGSASSGSMPLTKETDPLDGAGEVERVLYEDGTVVEIVTGADGKPTLRTRKVEIEPPEPLLLLRSAGGSA [r15_478_JUSTAS]”, the “folding stability dG unfold” value was -0.501 ± 0.63 kcal/mol in series [1] and less than -1 kcal/mol in series [2].

For “SAGGSDLSSASFSSSPSTLPDGRSLTTYPAVTLPDGTVATLTVETDPATGAPTVTLTLGDTDIVLATSAGGS [r16_766_JUSTAS]”, the entries for the “folding stability dG unfold” value in series [1] and in series [2] were 0.0331 ± 0.32 kcal/mol and -0.474 ± 0.25 kcal/mol, respectively.

As for “SAGGSIPAEELAAALAALPELPAAEVEVVVEERPDEVVVDVRFADPEHPRHVALLRRAERLLAEAASAGGSA [r2_3_TrMRF]”, the “folding stability dG unfold” value was 0.373 ± 0.3 kcal/mol in series [1] and -0.305 ± 0.22 kcal/mol in series [2].

Take “SAGGSKEEIEKKLKELAEKLGVEVEDIEIKPLSNGKYIAVVKFKDNPNVYAVYEFDGDEIKIVEIKPSAGGS [r8_432_TrMRF]”: the “folding stability dG unfold” value was determined as 5.04 ± 0.26 kcal/mol in series [1] and 5.15 ± 0.57 kcal/mol in series [2].

For the sequence “SAGGSMKIVKKSEDPSPPVETIEVDPNLDIEKIINELKNQPNVKVDKSTDPNSSKKTITITRPVDGSAGGSA [r2_44_JUSTAS]”, the “folding stability dG unfold” value in series [1] is 0.0999 ± 0.058 kcal/mol; in series [2] it was -0.224 ± 0.086 kcal/mol.

Regarding “SAGGSMLTVDYTVSPDVDLEEALAAVAEEVRAALLAETGGPVAVDVRPVSRPPDGTVRIRVDVALESAGGSA [r2_214_JUSTAS]”, the results for the “folding stability dG unfold” value in series [1] and in series [2] were 0.991 ± 0.028 kcal/mol and 0.525 ± 0.12 kcal/mol, respectively.
